Test results published in patent US20120316071A1 (published 2012).

Legend:
[1] = biological target: T1, Recombinant Human DLL4 (delta-like protein 4) (human, UniProt Q9NR61 27-529); assay: ECL (MSD) multispot assay; Fab 0.01 µM
T1 construct: Bought recombinant protein (R&D Systems Cat#1506-D4/CF); also called rHuman DLL4; Delta-like 4

[2] = biological target: T1, Recombinant Human DLL4 (delta-like …); assay: ECL (MSD) multispot assay; Fab 0.1 µM
Recombinant Human DLL4 [3] = biological target: T2, Recombinant Human DLL4 (human, UniProt Q9NR61 27-524); assay: ECL 96-well plate binding assay, DLL4 immobilised, 10 nM Fab
T2 construct: Bought recombinant protein (R&D Systems Cat#1506-D4/CF), coated on the plate; also called delta-like protein 4; Delta-like 4

Recombinant Human DLL4 [4] = biological target: T2, Recombinant Human DLL4; assay: ELISA, DLL4 coated, 100 nM Fab
[5] = biological target: T3, Recombinant Human DLL4 (delta-like protein 4) (human, UniProt Q9NR61 27-529); assay: ELISA on coated DLL4, 100 nM Fab
T3 construct: Bought recombinant human DLL4 (R&D Systems Cat#1506-D4/CF), coated on the plate; also called rHuman DLL4; Delta-like 4

[6] = biological target: T3, Recombinant Human DLL4 (delta-like …); assay: 96-well plate ECL (MSD) binding assay on coated DLL4, 10 nM Fab
[7] = biological target: T4, Recombinant Human DLL4 (delta-like protein 4) (human, UniProt Q9NR61 27-524); assay: ELISA on plate-coated DLL4, 100 nM Fab, signal minus noise
T4 construct: Bought recombinant protein (R&D Systems Cat#1506-D4/CF); also called rHuman DLL4; Delta-like 4

[8] = biological target: T4, Recombinant Human DLL4 (delta-like …); assay: ECL (MSD) multispot binding assay, DLL4 immobilised, 10 nM Fab, DLL4 signal over blank

Row | Binder | ELISA signal [5] | ECL signal [6] | also measured
1 | Fab VH1-46_IGHD6-6*01_IGHJ1*01 S102A & L6_IGKJ1*01 (Fab, V domains shown, Fab; The VH was cloned into Plasmid A (CH1, His6 and Flag tags) and the kappa VL into Plasmid C (kappa CL); expressed in E. coli) VH: QVQLVQSGAEVKKPGASVKVSCKASGYTFTSYYMHWVRQAPGQGLEWMGIINPSGGSTSYAQKFQGRVTMTRDTSTSTVYMELSSLRSEDTAVYYCAREEYASSSAEYFQHWGQGTLVTVSS VL: not shown |  |  | ECL signal [1]: 2600; Signal/Noise [1]: 10; ECL signal [2]: 15800; Signal/Noise [2]: 71.6
2 | Fab VH1-46_IGHD6-6*01_IGHJ1*01 S102A/S103P/S104F/H111F/I51T/N52L/P53W/S54T/G56H & L6_IGKJ1*01 (Fab, V domains shown, Tested as Fab expressed in E. coli (CH1 with His6/Flag tags from plasmid A; kappa CL from plasmid C); also called APFF TLWTH) VH: QVQLVQSGAEVKKPGASVKVSCKASGYTFTSYYMHWVRQAPGQGLEWMGITLWTGHSTSYAQKFQGRVTMTRDTSTSTVYMELSSLRSEDTAVYYCAREEYAPFSAEYFQFWGQGTLVTVSS VL: not shown |  |  | ECL signal (Recombinant Human DLL4 [3]): 126000; ELISA signal (Recombinant Human DLL4 [4]): 0.433
3 | Fab VH1-46_IGHD6-6*01_IGHJ1*01 S102A/S103P/S104F/H111F/I51A/N52L/S54T/G56H (APFF ALTH) & L6_IGKJ1*01 (Fab, V domains shown, Fab made in E. coli; CH1 with tags and kappa CL are not included) VH: QVQLVQSGAEVKKPGASVKVSCKASGYTFTSYYMHWVRQAPGQGLEWMGIALPTGHSTSYAQKFQGRVTMTRDTSTSTVYMELSSLRSEDTAVYYCAREEYAPFSAEYFQFWGQGTLVTVSS VL: not shown | 0.62 | 143000 | 
4 | Fab VH1-46_IGHD6-6*01_IGHJ1*01 S102A/S103P/S104F/H111F/I51E/N52L/S54T/G56H (APFF ELTH) & L6_IGKJ1*01 (Fab, V domains shown, Fab made in E. coli; CH1 with tags and kappa CL are not included) VH: QVQLVQSGAEVKKPGASVKVSCKASGYTFTSYYMHWVRQAPGQGLEWMGIELPTGHSTSYAQKFQGRVTMTRDTSTSTVYMELSSLRSEDTAVYYCAREEYAPFSAEYFQFWGQGTLVTVSS VL: not shown | 0.995 | 167000 | 
5 | Fab VH1-46_IGHD6-6*01_IGHJ1*01 S102A/S103P/S104F/H111F/I51T/N52L/P53V/S54T/G56H & L6_IGKJ1*01 (Fab, V domains shown, Tested as Fab expressed in E. coli (CH1 with His6/Flag tags from plasmid A; kappa CL from plasmid C); also called APFF TLVTH) VH: QVQLVQSGAEVKKPGASVKVSCKASGYTFTSYYMHWVRQAPGQGLEWMGITLVTGHSTSYAQKFQGRVTMTRDTSTSTVYMELSSLRSEDTAVYYCAREEYAPFSAEYFQFWGQGTLVTVSS VL: not shown |  |  | ECL signal (Recombinant Human DLL4 [3]): 91500; ELISA signal (Recombinant Human DLL4 [4]): 0.035
6 | Fab VH1-46_IGHD6-6*01_IGHJ1*01 S102A/S103P/S104F/H111F/I51T/N52L/P53Y/S54T/G56H & L6_IGKJ1*01 (Fab, V domains shown, Tested as Fab expressed in E. coli (CH1 with His6/Flag tags from plasmid A; kappa CL from plasmid C); also called APFF TLYTH) VH: QVQLVQSGAEVKKPGASVKVSCKASGYTFTSYYMHWVRQAPGQGLEWMGITLYTGHSTSYAQKFQGRVTMTRDTSTSTVYMELSSLRSEDTAVYYCAREEYAPFSAEYFQFWGQGTLVTVSS VL: not shown |  |  | ECL signal (Recombinant Human DLL4 [3]): 99500; ELISA signal (Recombinant Human DLL4 [4]): 0.274
7 | Fab VH1-46_IGHD6-6*01_IGHJ1*01 S102A/S103P/S104F/H111F P53A & L6_IGKJ1*01 (Fab, V domains shown, Fab made in E. coli: CH1 with His6/Flag tags from Plasmid A, kappa constant region from Plasmid C; also called APFF P53A) VH: QVQLVQSGAEVKKPGASVKVSCKASGYTFTSYYMHWVRQAPGQGLEWMGIINASGGSTSYAQKFQGRVTMTRDTSTSTVYMELSSLRSEDTAVYYCAREEYAPFSAEYFQFWGQGTLVTVSS VL: not shown |  |  | ELISA (Signal-Noise) [7]: 0.41; Signal/Noise [10 nM Fab] [8]: 462
8 | Fab VH1-46_IGHD6-6*01_IGHJ1*01 S102A/S103P/S104F/H111F S54A & L6_IGKJ1*01 (Fab, V domains shown, Fab made in E. coli: CH1 with His6/Flag tags from Plasmid A, kappa constant region from Plasmid C; also called APFF S54A) VH: QVQLVQSGAEVKKPGASVKVSCKASGYTFTSYYMHWVRQAPGQGLEWMGIINPAGGSTSYAQKFQGRVTMTRDTSTSTVYMELSSLRSEDTAVYYCAREEYAPFSAEYFQFWGQGTLVTVSS VL: not shown |  |  | ELISA (Signal-Noise) [7]: 0.255; Signal/Noise [10 nM Fab] [8]: 122
9 | Fab VH1-46_IGHD6-6*01_IGHJ1*01 S102A/S103P/S104F/H111F/I51H/N52L/S54T/G56H (APFF HLTH) & L6_IGKJ1*01 (Fab, V domains shown, Fab made in E. coli; CH1 with tags and kappa CL are not included) VH: QVQLVQSGAEVKKPGASVKVSCKASGYTFTSYYMHWVRQAPGQGLEWMGIHLPTGHSTSYAQKFQGRVTMTRDTSTSTVYMELSSLRSEDTAVYYCAREEYAPFSAEYFQFWGQGTLVTVSS VL: not shown | 0.647 | 155000 | 
10 | Fab VH1-46_IGHD6-6*01_IGHJ1*01 S102A/S103P/S104F/H111F/I51R/N52L/S54T/G56H (APFF RLTH) & L6_IGKJ1*01 (Fab, V domains shown, Fab made in E. coli; CH1 with tags and kappa CL are not included) VH: QVQLVQSGAEVKKPGASVKVSCKASGYTFTSYYMHWVRQAPGQGLEWMGIRLPTGHSTSYAQKFQGRVTMTRDTSTSTVYMELSSLRSEDTAVYYCAREEYAPFSAEYFQFWGQGTLVTVSS VL: not shown | 0.512 | 92400 | 

The next lines start with results.

Row | ELISA signal [5] | ECL signal [6] | Binder | also measured
11 | 0.641 | 123000 | Fab VH1-46_IGHD6-6*01_IGHJ1*01 S102A/S103P/S104F/H111F/I51T/N52L/S54T/G56H (APFF TLTH) & L6_IGKJ1*01 (Fab, V domains shown, Fab made in E. coli; CH1 with tags and kappa CL are not included) VH: QVQLVQSGAEVKKPGASVKVSCKASGYTFTSYYMHWVRQAPGQGLEWMGITLPTGHSTSYAQKFQGRVTMTRDTSTSTVYMELSSLRSEDTAVYYCAREEYAPFSAEYFQFWGQGTLVTVSS VL: not shown | 
12 | 0.088 | 126000 | Fab VH1-46_IGHD6-6*01_IGHJ1*01 S102A/S103P/S104F/H111F/I51W/N52L/S54T/G56H (APFF WLTH) & L6_IGKJ1*01 (Fab, V domains shown, Fab made in E. coli; CH1 with tags and kappa CL are not included) VH: QVQLVQSGAEVKKPGASVKVSCKASGYTFTSYYMHWVRQAPGQGLEWMGIWLPTGHSTSYAQKFQGRVTMTRDTSTSTVYMELSSLRSEDTAVYYCAREEYAPFSAEYFQFWGQGTLVTVSS VL: not shown | 
13 | 1.1 | 192000 | Fab VH1-46_IGHD6-6*01_IGHJ1*01 S102A/S103P/S104F/H111F/I51V/N52L/S54T/G56H (APFF VLTH) & L6_IGKJ1*01 (Fab, V domains shown, Fab made in E. coli; CH1 with tags and kappa CL are not included) VH: QVQLVQSGAEVKKPGASVKVSCKASGYTFTSYYMHWVRQAPGQGLEWMGIVLPTGHSTSYAQKFQGRVTMTRDTSTSTVYMELSSLRSEDTAVYYCAREEYAPFSAEYFQFWGQGTLVTVSS VL: not shown | 
